This is an account of results in article PMC5112516.

Residue numbers refer to the chain shown, from its start.

Assay in all cases: tryptophan fluorescence quenching
Holding throughout (conditions): Fluorescence and EMSA: PBS (130 mM NaCl, 2.7 mM KCl, 10 mM Na2HPO4, 2 mM KH2PO4, pH 7.4), 25 C; ELISA: 10 mM KH2PO4, 50 mM KCl, pH 7, 0.1% Tween 20

Data set [1] concerns the target T1, Sac7d (Sulfolobus acidocaldarius) (UniProt P13123).
T1 sequence: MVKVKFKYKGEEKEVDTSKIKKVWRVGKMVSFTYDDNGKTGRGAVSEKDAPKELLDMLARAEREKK

Data set [2] concerns the target T2, Ssh7a (Sulfolobus shibatae) (UniProt P61990).
T2 sequence: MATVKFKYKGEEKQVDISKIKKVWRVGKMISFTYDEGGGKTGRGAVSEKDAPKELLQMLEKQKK

Data set [3] addresses T3, Aho7b (Acidianus hospitalis) (UniProt F4B9I5).
T3 sequence: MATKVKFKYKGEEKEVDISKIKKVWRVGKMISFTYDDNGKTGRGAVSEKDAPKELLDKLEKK

In a further data set the test system is Mse7.
The next data set has as its system Mcu7.
Data set [4] has as its target T1, Sac7d (Sulfolobus acidocaldarius). The source holds these as a separate data set.
In data set [5] the target is T4, Sso7d (Sulfolobus solfataricus) (UniProt P39476).
T4 sequence: T2 sequence with Q14E

Data set [6] deals with T5, Ssh7b (Sulfolobus shibatae) (UniProt O59632).
T5 sequence: T2 sequence with A2V, Q14E, I17T

The test system of the next data set is Sis7a.
The test system of another data set is Sto7.
A further data set has as its system Sis7b.
In data set [7] the target is T6, Aho7a (Acidianus hospitalis) (UniProt F4B991).
T6 sequence: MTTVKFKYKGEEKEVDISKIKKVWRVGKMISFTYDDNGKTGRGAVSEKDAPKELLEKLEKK

Data set [8] concerns the target T7, Sac7e (Sulfolobus acidocaldarius) (UniProt P13125).
T7 sequence: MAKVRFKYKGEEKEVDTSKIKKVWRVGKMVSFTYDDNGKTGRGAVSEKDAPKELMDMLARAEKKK

Data set [9] addresses T8, Aho7c (Acidianus hospitalis) (UniProt F4B8X5).
T8 sequence: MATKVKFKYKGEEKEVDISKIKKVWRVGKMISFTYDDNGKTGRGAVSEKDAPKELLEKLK

One may read the Kd as a measure of binding affinity in units of concentration. The low end stands for higher affinity, the high end for lower affinity. Regarding calf-thymus DNA (ct-DNA), sonicated, the Kd came out at 0.203 µM in data set [1]; 18 µM in data set [2]; 13 µM in [3]; 15 µM in the data set on Mse7; 16 µM with Mcu7; 13 µM in data set [4]. Further, the Kd turned out to be 17 µM in [5]; 22 µM in [6]; 15 µM with Sis7a; 14 µM with Sto7; 16 µM in the data set with Sis7b; 16 µM in data set [7]. Further, the Kd stood at 11 µM in [8] and 16 µM in data set [9].
